4 molecules from US20130263324, “METHODS FOR PRODUCING A COMPLEX TRANSGENIC TRAIT LOCUS” (E.I. du Pont de Nemours and Company, published 2013) can be followed below.

Series [1] deals with MHP77-3 meganuclease (engineered I-CreI). Put plainly: cell_activity. The conditions noted are these: maize embryos.
In series [2] the target is T1, MHP55-2 meganuclease (engineered I-CreI).
T1 chain: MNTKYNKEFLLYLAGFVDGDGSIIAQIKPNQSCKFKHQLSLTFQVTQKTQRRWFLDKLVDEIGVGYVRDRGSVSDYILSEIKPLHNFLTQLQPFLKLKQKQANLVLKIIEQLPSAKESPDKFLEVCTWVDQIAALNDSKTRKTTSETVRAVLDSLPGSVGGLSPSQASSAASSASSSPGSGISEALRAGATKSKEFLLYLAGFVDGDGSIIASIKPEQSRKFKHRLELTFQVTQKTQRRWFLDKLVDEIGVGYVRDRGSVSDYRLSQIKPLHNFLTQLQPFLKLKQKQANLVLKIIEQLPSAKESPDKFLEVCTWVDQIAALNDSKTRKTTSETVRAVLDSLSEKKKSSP
Put plainly: cell_activity; maize embryos. The conditions noted are these: tags: SV40 NLS. As to the method: (§1) Trait gene cassettes can be introduced at other target sites of the complex trait locus through homologous recombination mediated by engineered meganucleases. Engineered meganucleases were designed to direct double strand breaks a two other MHP target sites, MHP55 (SEQ ID NO: 72) and MHP77 (SEQ ID NO: 74) within the complex trait locus. Target site modification was determined using qPCR. The probe sequence for qPCR screening of the MHP55 target site was […] (SEQ ID NO: 115), the MHPTS55_Forward_MGBprimer sequence was […] (SEQ ID NO: 116), and MHP55_reverse_MGB primer was […] (SEQ ID NO: 117). The probe sequence for qPCR of MHP77 target site was […] (SEQ ID NO: 118), the MHPTS77_Forward_MGB primer sequence was […] (SEQ ID NO: 119), and MHP77_reverse_MGB primer was […] (SEQ ID NO: 120). The trait gene cassettes encoding MHP14, MHP55 and MHP77 were introduced into maize somatic embryos via transformation techniques using bombardment and following bombardment, embryos were incubated on 560P (maintenance medium) for 48 hours […].

Series [3] concerns the target T2, MHP14+ meganuclease (engineered I-CreI).
T2 chain: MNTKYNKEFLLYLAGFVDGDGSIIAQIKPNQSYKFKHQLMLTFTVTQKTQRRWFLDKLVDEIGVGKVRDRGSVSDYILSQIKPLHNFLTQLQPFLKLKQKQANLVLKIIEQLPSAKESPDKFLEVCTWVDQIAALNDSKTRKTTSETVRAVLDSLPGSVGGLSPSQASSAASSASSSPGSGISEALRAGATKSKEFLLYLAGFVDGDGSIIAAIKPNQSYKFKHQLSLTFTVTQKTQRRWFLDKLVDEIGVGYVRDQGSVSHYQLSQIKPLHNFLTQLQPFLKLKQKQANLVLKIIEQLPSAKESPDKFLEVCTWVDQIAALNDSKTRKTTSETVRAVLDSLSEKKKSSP
Put plainly: cell_activity; maize embryos. The conditions noted are these: tags: SV40 NLS. As to the method:
as §1

The target of series [4] is T3, MHP77 meganuclease (engineered I-CreI).
T3 chain: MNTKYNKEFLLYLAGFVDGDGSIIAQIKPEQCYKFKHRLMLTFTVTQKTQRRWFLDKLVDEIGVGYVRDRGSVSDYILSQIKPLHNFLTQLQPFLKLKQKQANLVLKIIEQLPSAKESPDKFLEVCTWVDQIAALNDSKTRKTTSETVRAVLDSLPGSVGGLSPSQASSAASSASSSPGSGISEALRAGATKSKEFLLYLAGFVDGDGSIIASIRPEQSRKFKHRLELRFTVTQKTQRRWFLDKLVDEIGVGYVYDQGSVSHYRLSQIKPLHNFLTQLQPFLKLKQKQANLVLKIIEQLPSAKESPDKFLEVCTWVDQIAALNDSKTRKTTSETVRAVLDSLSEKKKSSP
The series is described as follows: cell_activity; maize embryos. The following applies: tags: SV40 NLS. As to the method:
as §1

In series [1], “GGGCGGTATGTATGTCATACTA (double strand) [MHP77 target]” gave an activity (% target site mutation) of 11.

B1: MHP55 target (dsDNA)
DNA 1: CCAACCGTCGTGAGACCTGCCC
DNA 2: GGGCAGGTCTCACGACGGTTGG
Consider B1, for which the activity in series [2] came out at 5 % target site mutation.

B2: MHP14 target (dsDNA)
DNA 1: CAAACAGATTCACGTCAGATTT
DNA 2: AAATCTGACGTGAATCTGTTTG
On to B2, for which, in series [3], the activity came out at 40 % target site mutation.

B3: MHP77 target (dsDNA)
DNA 1: GGGCGGTATGTATGTCATACTA
DNA 2: TAGTATGACATACATACCGCCC
As for B3, the activity in series [4] worked out at 1 % target site mutation.
